Data as given in US20100196385A1 (AstraZeneca / MedImmune, published 2010).

T1: human Dll1 (human, UniProt O00548 18-723)
T1 construct: whole, on cells
T1 sequence (looked up): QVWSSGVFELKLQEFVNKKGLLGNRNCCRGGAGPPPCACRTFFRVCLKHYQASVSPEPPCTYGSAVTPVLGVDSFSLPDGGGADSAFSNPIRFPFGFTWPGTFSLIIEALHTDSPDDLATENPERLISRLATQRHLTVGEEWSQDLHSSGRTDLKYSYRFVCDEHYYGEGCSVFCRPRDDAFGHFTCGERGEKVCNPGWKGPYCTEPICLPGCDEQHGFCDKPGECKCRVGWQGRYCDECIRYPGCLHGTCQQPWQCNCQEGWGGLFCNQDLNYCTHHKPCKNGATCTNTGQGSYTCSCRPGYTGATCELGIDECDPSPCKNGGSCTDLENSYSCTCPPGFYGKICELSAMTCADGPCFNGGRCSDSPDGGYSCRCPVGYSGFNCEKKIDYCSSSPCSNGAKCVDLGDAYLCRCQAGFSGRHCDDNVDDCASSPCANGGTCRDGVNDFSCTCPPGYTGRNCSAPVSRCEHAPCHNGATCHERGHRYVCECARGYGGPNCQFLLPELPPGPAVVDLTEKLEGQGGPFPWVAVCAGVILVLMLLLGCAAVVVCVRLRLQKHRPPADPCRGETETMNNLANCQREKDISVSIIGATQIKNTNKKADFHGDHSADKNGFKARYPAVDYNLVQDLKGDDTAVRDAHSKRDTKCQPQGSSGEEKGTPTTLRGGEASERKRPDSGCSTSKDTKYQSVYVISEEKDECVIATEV


What was measured:
[1] = molecular target: T2, full length human DLL4 (human, UniProt Q9NR61 27-685); assay: FACS titration, HEK293 cells with human DLL4
T2 construct: whole, on cells; also called native DLL4 expressed in HEK293 cells
T2 sequence (Q9NR61 27-685): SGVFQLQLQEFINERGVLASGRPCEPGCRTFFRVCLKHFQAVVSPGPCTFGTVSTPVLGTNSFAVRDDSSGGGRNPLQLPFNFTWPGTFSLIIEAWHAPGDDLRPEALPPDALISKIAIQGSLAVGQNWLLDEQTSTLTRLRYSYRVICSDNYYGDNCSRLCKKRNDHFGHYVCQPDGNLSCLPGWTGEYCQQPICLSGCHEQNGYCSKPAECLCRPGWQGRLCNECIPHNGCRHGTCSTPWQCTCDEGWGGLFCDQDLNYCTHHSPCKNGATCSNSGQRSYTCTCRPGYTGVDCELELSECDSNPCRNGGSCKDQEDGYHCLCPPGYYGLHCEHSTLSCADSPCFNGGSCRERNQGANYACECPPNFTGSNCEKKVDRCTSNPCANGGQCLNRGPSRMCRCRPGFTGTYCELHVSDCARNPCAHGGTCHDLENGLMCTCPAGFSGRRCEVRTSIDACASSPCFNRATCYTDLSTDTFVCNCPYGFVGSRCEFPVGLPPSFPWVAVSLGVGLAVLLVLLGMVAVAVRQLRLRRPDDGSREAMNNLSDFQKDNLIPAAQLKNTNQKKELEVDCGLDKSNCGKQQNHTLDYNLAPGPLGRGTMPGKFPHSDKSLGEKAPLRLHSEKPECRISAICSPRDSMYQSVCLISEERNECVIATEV
Outline: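 Antibody titration on HEK293 cells expressing full-length human DLL4, detected with anti-human IgG-Fc-Cy5 plus 7AAD for 30 minutes at 4° C. by flow cytometry. KD estimated by nonlinear fit of mean fluorescence vs total mAb concentration, with receptor number, background and proportionality constant floating.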

[2] = molecular target: DLL4 extracellular domain (R&D systems, catalog #1506-D4/CF) (UniProt Q9NR61 27-529, limits assumed); assay: cell-based or functional assay
DLL4 extracellular domain (R&D systems, catalog #1506-D4/CF), sequence (Q9NR61 27-529 limits assumed): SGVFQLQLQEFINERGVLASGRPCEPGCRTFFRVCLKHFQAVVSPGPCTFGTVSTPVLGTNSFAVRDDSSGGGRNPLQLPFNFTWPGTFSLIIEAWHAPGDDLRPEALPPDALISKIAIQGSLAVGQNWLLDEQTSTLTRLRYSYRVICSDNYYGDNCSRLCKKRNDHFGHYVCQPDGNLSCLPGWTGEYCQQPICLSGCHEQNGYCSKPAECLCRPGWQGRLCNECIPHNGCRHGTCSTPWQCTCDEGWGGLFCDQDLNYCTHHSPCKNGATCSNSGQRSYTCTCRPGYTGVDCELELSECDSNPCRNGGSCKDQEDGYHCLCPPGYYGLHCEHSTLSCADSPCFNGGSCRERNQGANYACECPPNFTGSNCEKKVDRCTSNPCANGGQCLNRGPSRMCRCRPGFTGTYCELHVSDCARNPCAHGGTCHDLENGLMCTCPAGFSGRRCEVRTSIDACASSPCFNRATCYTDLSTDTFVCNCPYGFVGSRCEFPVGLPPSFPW

[3] = molecular target: T2, full length human DLL4; assay: FMAT competition, supernatant vs Alexa-647 human Notch1/Fc, 293T cells with human DLL4
Outline: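 293T cells transiently expressing full-length human DLL4, mixed with untransfected cells, preincubated with hybridoma supernatant for 1 h at 4 °C, then Alexa-647 Notch1/Fc (final 6.7 ng/ml) added for 3 h at 4 °C; bound ligand read by FMAT. % inhibition scaled between non-DLL4-binding supernatants and saturating unlabeled Notch1/Fc.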

[4] = molecular target: T3, human Jagged1 (human, UniProt P78504 34-1218); assay: FACS, 5 µg/ml, 293T cells with human Jagged1
T3 construct: whole, on cells
T3 sequence (P78504 34-1218): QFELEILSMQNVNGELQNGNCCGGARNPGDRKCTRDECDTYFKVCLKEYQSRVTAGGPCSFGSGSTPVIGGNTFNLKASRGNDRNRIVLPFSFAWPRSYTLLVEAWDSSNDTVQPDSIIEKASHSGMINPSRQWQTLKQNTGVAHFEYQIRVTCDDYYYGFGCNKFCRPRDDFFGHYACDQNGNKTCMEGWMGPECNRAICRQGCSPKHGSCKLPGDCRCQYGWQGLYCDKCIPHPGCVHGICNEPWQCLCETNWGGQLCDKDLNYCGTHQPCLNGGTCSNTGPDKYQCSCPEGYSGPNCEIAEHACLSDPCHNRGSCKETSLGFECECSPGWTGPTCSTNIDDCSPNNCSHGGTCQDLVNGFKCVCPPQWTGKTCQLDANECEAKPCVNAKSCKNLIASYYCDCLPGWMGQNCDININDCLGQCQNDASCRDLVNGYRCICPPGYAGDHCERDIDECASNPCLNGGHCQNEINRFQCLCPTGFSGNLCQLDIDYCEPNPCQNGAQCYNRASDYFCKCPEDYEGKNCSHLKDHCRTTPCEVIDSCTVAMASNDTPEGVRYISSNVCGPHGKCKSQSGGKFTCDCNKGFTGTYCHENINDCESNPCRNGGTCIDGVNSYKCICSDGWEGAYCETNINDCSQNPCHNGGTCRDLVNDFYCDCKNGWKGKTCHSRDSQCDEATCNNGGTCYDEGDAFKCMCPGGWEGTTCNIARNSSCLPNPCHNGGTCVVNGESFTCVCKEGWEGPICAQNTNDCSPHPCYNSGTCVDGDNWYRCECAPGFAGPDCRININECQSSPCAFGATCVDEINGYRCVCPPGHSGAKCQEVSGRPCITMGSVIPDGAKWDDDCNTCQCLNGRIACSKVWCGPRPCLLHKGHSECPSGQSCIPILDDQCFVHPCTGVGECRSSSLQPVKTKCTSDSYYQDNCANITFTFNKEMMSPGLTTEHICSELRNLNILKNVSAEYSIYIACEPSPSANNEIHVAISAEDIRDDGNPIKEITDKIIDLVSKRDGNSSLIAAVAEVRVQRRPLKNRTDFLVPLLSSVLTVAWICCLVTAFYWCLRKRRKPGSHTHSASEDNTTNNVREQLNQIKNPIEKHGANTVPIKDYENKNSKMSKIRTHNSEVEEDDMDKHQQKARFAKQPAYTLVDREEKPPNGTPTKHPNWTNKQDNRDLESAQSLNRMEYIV
Outline: (§1)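 First, cells were resuspended in PBS with 2% FCS at 50000 cells/well. Next, diluted purified anti-DLL4 antibodies were applied for 1 h at 4 °C. Finally, geometric mean fluorescence of target-transfected cells was compared with that of mock-transfected cells.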

[5] = molecular target: T1, human Dll1; assay: FACS, 15 µg/ml, 293T cells with human Dll1
Outline: as §1

[6] = molecular target: T3, human Jagged1; assay: FACS, up to 300 µg/ml, HEK-293 cells stably overexpressing human Jagged1
[7] = molecular target: T2, full length human DLL4; assay: FMAT competition, purified antibody vs Alexa-647 human Notch1/Fc, 293T cells with human DLL4
Outline: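 Blocking of Notch1/Fc binding to DLL4 was scored by FMAT fluorescence on DLL4-transfected 293T cells alongside untransfected cells. Antibodies, diluted serially from 5 μg/ml, were added for 1 h at 4 °C before Alexa-647 Notch1/Fc (100 ng/ml as added) for a further 3 h at 4 °C.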

Binder	Kd [1] [nM]	% inhibition 1 µg/ml, AVERAGE (HUVEC proliferation on coated DLL4) [2] [%]	% inhibition 1 µg/ml, N = 1 (HUVEC proliferation on coated DLL4) [2] [%]	% inhibition 1 µg/ml, N = 2 (HUVEC proliferation on coated DLL4) [2] [%]	% inhibition 10 µg/ml, AVERAGE (HUVEC proliferation on coated DLL4) [2] [%]	% inhibition 10 µg/ml, N = 1 (HUVEC proliferation on coated DLL4) [2] [%]	% inhibition 10 µg/ml, N = 2 (HUVEC proliferation on coated DLL4) [2] [%]	Mean % inhibition [3] [%]	Jagged1/293T X Geo mean [4]	Dll1/293T X Geo mean [5]	fold over background [6] [fold]	% inhibition at 0.020 nM [7] [%]	% inhibition at 0.070 nM [7] [%]	% inhibition at 0.21 nM [7] [%]	% inhibition at 0.62 nM [7] [%]	% inhibition at 1.9 nM [7] [%]	% inhibition at 5.6 nM [7] [%]	% inhibition at 16.7 nM [7] [%]	IC50 [7] [nM]	% inhibition n = 1 [3] [%]	further results
4B4 (antibody, IgG4, V domains shown, Fully human; used for IgG4 rows and where no isotype is printed; also called 4B4 IgG4; 4B4.1) VH: QVLLIQSGAEVKKPGASVQVSCKASGYTFTNYGVIWVRQAPGQGLEYMGWISAYNGNTNYAQKLQDRVTMTSDTSTTTAYMELRSLRSDDTAVYYCARELGSSFDYWGQGTLVTVSS VL: SYELTQPPSVSVSPGQTARITCSGDALPKKYAYWYQQKSGQAPVLVIYEDIKRPSGIPERFSGSSSGTMATLTISGAQVEDEADYYCFSTDNSGDHSVFGGGTKLTVL	0.516	93	101	84	97	102	92	121	16.8	25.9	< 2.5	14	21	23	65	95	127	136	0.72		
2H10 (antibody, IgG4, V domains shown, Fully human; used for IgG4 rows and where no isotype is printed; also called 2H10 IgG4) VH: QVQLVESGGGVVQPGRSLRLSCAASGFTFSRHGMHWVRQAPGKGLEWVAVVWFDGSNIYYADSVKGRFTISRDNSKNTLYLQMNSLRAEDTAMYYCARDSRIAAADYWGQGTLVTVSS VL: SYELTQPPSVSVSPGQTVSITCSGDKLGDKYVCWYQQKPGQSPVLVIYQESKRPSGIPERFSGSSSGNTATLTISGTQAMDEADYYCQTWDSSLVVFGGGTKLTVL	0.882	93	98	87	103	110	95	127	9.28	44.1	< 2.5	6	-3	14	27	45	119	111	2.05	107	% inhibition n = 2 [3]: 150%; % inhibition n = 3 [3]: 124%
9G8 (antibody, IgG4, V domains shown, Fully human; used for IgG4 rows and where no isotype is printed; also called 9G8 IgG4) VH: QLQLQESGPGLVKPSETLSLSCTVSGGSISSSSSYWGLIRQPPGKGLEWIGSIYYSGSTYYSPSLKSRVSISVDTSKNQFSLKLSSVTAADTAVYFCARQGYGGHPDVFDIWGQGTMVTVSS VL: SSELTQSPSVSVSPGQTARITCSGDKLGDVYVCWYQQKTGQSPVLVIYEDTKRPSGIPERFSGSNSGNTATLTISGTQVMDEADYYCQAWDSTTAVIFGGGTKLTVL	0.999	62	52	71	77	72	82	118	17.4	32.3	< 2.5	10	14	33	22	68	125	121	1.88	112	% inhibition n = 2 [3]: 98%; % inhibition n = 3 [3]: 143%
21H3 (antibody, IgG4, V domains shown, Fully human; used for IgG4 rows and where no isotype is printed; also called 21H3 IgG4) VH: QVQLVQSGAEVKKPGASVKVSCKASGYTFTNYGITWVRQAPGQGPEWMGWISAYNGNTNYAQKLQDRVTVTTDTSTSTAYMELRSLRSDDTAVYYCARDRVPRIPVTTEAFDIWGQGTMVTVSS VL: QSVLTQPPSASGTPGQRVTISCSGSSSNIGSYFVYWYQQLPGTAPKLLIYRNNQRPSGVPDRFSGSESGTSASLAISGLRSEDEADYYCAAWDDSLSGHWVFGGGTRLTVL	0.359	93	86	99	89	88	89		15.5	32.4		-17	-2	25	9	68	115	124	1.73		
